What was measured:
[1] = target: T1, hIL-36R-His (extracellular domain of human IL-36R with C-terminal His tag) (human (homo sapiens), UniProt Q9HB29 20-335); experiment: SPR (Biacore T200), antibody captured by anti-human Fc, hIL-36R-His as analyte, 1:1 model
T1 construct: also called human hIL-36R-His
T1 sequence: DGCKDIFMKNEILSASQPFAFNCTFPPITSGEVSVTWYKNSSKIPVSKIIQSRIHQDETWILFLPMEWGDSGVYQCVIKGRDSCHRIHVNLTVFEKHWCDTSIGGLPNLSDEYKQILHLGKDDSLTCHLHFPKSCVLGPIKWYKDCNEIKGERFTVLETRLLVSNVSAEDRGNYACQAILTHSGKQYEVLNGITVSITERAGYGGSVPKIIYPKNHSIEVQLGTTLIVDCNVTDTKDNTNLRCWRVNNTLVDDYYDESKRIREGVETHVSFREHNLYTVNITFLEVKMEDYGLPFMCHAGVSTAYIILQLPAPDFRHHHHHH

[2] = target: T2, human IL-36R on the cell surface (HEK-Blue IL-36 cells, HaCAT cells, human CD14+ monocytes) (human, UniProt Q9HB29 20-575); experiment: cell-based or functional assay
T2 sequence (looked up): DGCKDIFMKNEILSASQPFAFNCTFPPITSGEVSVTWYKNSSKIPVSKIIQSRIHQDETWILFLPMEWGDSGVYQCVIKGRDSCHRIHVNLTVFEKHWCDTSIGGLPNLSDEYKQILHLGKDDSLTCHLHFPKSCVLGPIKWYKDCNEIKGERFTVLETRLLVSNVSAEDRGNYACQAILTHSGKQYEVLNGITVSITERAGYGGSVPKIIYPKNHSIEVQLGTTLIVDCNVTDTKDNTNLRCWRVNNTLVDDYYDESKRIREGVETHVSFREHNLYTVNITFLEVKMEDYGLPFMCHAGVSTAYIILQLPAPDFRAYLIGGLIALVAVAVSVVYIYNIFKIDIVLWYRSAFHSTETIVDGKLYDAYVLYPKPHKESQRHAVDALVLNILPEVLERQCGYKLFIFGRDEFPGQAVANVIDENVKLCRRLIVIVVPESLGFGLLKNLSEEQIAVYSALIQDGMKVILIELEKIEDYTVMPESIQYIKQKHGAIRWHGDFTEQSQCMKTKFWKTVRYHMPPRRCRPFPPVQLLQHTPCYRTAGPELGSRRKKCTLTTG

B1: R72B7VH+L36E9VK (antibody, V domains shown)
VH: QVQLVQSGAEVKKPGASVKVSCKASGYSFTSSWIHWVKQAPGQGLEWMGEINPGNVRSNYNENFRNKVTMTVDTSISTAYMELSRLRSDDTAVYYCTVINYGEPYFASWGQGTLVTVSS
VL: EIVLTQSPGTLSLSPGERATLSCRASQSVIGSYLAWYQQKPGQAPRLLIYSASKLASGIPDRFSGSGSGTDFTLTISRLEPEDFAVYYCQQDTRYPITFGQGTKVEIK
notes: also called R72B7VH+L36E9VK monoclonal antibody
[1]
  Kd: 1.65 nM
  koff: 5.4e-05 s⁻¹
  kon: 32800 M⁻¹ s⁻¹
[2]
  IC50 for inhibiting IL-36α from inducing hIL-8 secretion by HaCAT cells: 0.508 nM
  IC50 for inhibiting IL-36β from inducing hIL-8 secretion by HaCAT cells: 0.511 nM
  IC50 for inhibiting IL-36γ from inducing hIL-8 secretion by HaCAT cells: 3.65 nM

B2: R49E11VH-h3+L36E9VK (antibody, V domains shown)
VH: QVQLVQSGAEVKKPGASVKVSCKASGYSFTSSWIHWVRQAPGQGLEWMGEINPGSGRSNYNENFQGRVTMTVDTSISTAYMELSRLRSDDTAVYYCTVVFYGEPYFPFWGQGTLVTVSS
VL: EIVLTQSPGTLSLSPGERATLSCRASQSVIGSYLAWYQQKPGQAPRLLIYSASKLASGIPDRFSGSGSGTDFTLTISRLEPEDFAVYYCQQDTRYPITFGQGTKVEIK
[1]
  Kd: 11.4 nM
  koff: 9.94e-05 s⁻¹
  kon: 8690 M⁻¹ s⁻¹
